Assay results: publication PMC4354923, “FTO is necessary for the induction of leptin resistance by high-fat feeding” (Molecular Metabolism, 2015)

Molecular target: Myc-tagged full length FTO (UniProt Q9C0B1 1-505)
Experiment: cell-based or functional assay

Sequence of Myc-tagged full length FTO (Q9C0B1 whole entry): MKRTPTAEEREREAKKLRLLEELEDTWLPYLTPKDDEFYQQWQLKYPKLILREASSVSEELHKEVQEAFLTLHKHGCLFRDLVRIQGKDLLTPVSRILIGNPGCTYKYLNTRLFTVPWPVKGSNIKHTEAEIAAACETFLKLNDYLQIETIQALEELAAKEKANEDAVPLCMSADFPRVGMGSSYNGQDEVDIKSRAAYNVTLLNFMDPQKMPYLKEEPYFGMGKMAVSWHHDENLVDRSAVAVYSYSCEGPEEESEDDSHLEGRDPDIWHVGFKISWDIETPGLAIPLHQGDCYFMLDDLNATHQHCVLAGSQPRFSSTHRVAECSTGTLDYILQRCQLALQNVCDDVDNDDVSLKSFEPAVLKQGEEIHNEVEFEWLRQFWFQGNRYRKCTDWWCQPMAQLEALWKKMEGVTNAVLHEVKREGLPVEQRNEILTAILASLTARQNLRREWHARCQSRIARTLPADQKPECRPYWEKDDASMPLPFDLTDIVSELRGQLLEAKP

B1: Thyroid receptor interacting protein 4 (TRIP4), in HEK293 cell extract (natural protein, human (endogenous in HEK293), UniProt Q15650 1-581, looked up)
chain: MAVAGAVSGEPLVHWCTQQLRKTFGLDVSEEIIQYVLSIESAEEIREYVTDLLQGNEGKKGQFIEELITKWQKNDQELISDPLQQCFKKDEILDGQKSGDHLKRGRKKGRNRQEVPAFTEPDTTAEVKTPFDLAKAQENSNSVKKKTKFVNLYTREGQDRLAVLLPGRHPCDCLGQKHKLINNCLICGRIVCEQEGSGPCLFCGTLVCTHEEQDILQRDSNKSQKLLKKLMSGVENSGKVDISTKDLLPHQELRIKSGLEKAIKHKDKLLEFDRTSIRRTQVIDDESDYFASDSNQWLSKLERETLQKREEELRELRHASRLSKKVTIDFAGRKILEEENSLAEYHSRLDETIQAIANGTLNQPLTKLDRSSEEPLGVLVNPNMYQSPPQWVDHTGAASQKKAFRSSGFGLEFNSFQHQLRIQDQEFQEGFDGGWCLSVHQPWASLLVRGIKRVEGRSWYTPHRGRLWIAATAKKPSPQEVSELQATYRLLRGKDVEFPNDYPSGCLLGCVDLIDCLSQKQFKEQFPDISQESDSPFVFICKNPQEMVVKFPIKGNPKIWKLDSKIHQGAKKGLMKQNKAV
NFκB-responsive firefly luciferase reporter (normalised to renilla) in Fto null MEFs co-transfected with a TRIP4 expression construct and Myc-tagged full length FTO: ≤ 5 fold
